Bridges are numbered along the chain shown (N, C = ends). Where no end group is shown, it is not given here. [ ]: non-standard residue; d: D form. The star is where a group is joined. PEG 40 kDa = PEG (40 kDa) covalently attached to Cys; Myristoyl = CCCCCCCCCCCCCC(=O)*; Abu = CC[C@H](N)C(=O)O; Aib = CC(C)(N)C(=O)O
T1: GIP receptor (UniProt P48546 22-466)
T1 sequence (looked up): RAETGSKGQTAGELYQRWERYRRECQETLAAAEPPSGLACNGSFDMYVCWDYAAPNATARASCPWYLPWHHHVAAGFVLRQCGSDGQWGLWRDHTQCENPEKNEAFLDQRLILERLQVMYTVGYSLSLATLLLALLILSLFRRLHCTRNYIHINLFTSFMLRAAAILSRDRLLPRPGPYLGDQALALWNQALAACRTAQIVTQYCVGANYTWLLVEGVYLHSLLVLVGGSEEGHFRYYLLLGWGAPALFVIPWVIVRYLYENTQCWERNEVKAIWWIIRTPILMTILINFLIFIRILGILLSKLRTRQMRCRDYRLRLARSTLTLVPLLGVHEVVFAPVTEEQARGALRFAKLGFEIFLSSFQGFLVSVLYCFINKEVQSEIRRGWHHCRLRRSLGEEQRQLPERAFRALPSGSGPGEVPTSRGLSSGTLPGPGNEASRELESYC

T2: GIP receptor (UniProt P48546 22-466)
T2 sequence (looked up): T1 sequence (looked up)

B1: mt-197 (peptide)
peptide: GTFTSDYSIYLDEQAAKEFVNWLLAG-NH2
modifications: lactam 13-17; N-terminus assumed
SMILES: CC[C@H](C)[C@H](NC(=O)[C@H](CO)NC(=O)[C@H](Cc1ccc(O)cc1)NC(=O)[C@H](CC(=O)O)NC(=O)[C@H](CO)NC(=O)[C@@H](NC(=O)[C@H](Cc1ccccc1)NC(=O)[C@@H](NC(=O)CN)[C@@H](C)O)[C@@H](C)O)C(=O)N[C@@H](Cc1ccc(O)cc1)C(=O)N[C@@H](CC(C)C)C(=O)N[C@@H](CC(=O)O)C(=O)N[C@H]1CCC(=O)NCCCC[C@@H](C(=O)N[C@@H](CCC(=O)O)C(=O)N[C@@H](Cc2ccccc2)C(=O)N[C@H](C(=O)N[C@@H](CC(N)=O)C(=O)N[C@@H](Cc2c[nH]c3ccccc23)C(=O)N[C@@H](CC(C)C)C(=O)N[C@@H](CC(C)C)C(=O)N[C@@H](C)C(=O)NCC(N)=O)C(C)C)NC(=O)[C@H](C)NC(=O)[C@H](C)NC(=O)[C@H](CCC(N)=O)NC1=O
B2: mt-194 (peptide)
peptide: [Aib]QGTFTSDYSIYLDEEAVRLFVNWLLAGGPSSGAPPPS-NH2
modifications: N-terminus assumed
SMILES: CC[C@H](C)[C@H](NC(=O)[C@H](CO)NC(=O)[C@H](Cc1ccc(O)cc1)NC(=O)[C@H](CC(=O)O)NC(=O)[C@H](CO)NC(=O)[C@@H](NC(=O)[C@H](Cc1ccccc1)NC(=O)[C@@H](NC(=O)CNC(=O)[C@H](CCC(N)=O)NC(=O)C(C)(C)N)[C@@H](C)O)[C@@H](C)O)C(=O)N[C@@H](Cc1ccc(O)cc1)C(=O)N[C@@H](CC(C)C)C(=O)N[C@@H](CC(=O)O)C(=O)N[C@@H](CCC(=O)O)C(=O)N[C@@H](CCC(=O)O)C(=O)N[C@@H](C)C(=O)N[C@H](C(=O)N[C@@H](CCCNC(=N)N)C(=O)N[C@@H](CC(C)C)C(=O)N[C@@H](Cc1ccccc1)C(=O)N[C@H](C(=O)N[C@@H](CC(N)=O)C(=O)N[C@@H](Cc1c[nH]c2ccccc12)C(=O)N[C@@H](CC(C)C)C(=O)N[C@@H](CC(C)C)C(=O)N[C@@H](C)C(=O)NCC(=O)NCC(=O)N1CCC[C@H]1C(=O)N[C@@H](CO)C(=O)N[C@@H](CO)C(=O)NCC(=O)N[C@@H](C)C(=O)N1CCC[C@H]1C(=O)N1CCC[C@H]1C(=O)N1CCC[C@H]1C(=O)N[C@@H](CO)C(N)=O)C(C)C)C(C)C
B3: mt-325 (peptide)
peptide: Y[Aib]QGTF[Abu]SDYSIYLDKQAA[Aib]EFVNWLLAGGPSSGAPPPSC-NH2
modifications: N-terminus assumed
SMILES: CC[C@H](NC(=O)[C@H](Cc1ccccc1)NC(=O)[C@@H](NC(=O)CNC(=O)[C@H](CCC(N)=O)NC(=O)C(C)(C)NC(=O)[C@@H](N)Cc1ccc(O)cc1)[C@@H](C)O)C(=O)N[C@@H](CO)C(=O)N[C@@H](CC(=O)O)C(=O)N[C@@H](Cc1ccc(O)cc1)C(=O)N[C@@H](CO)C(=O)N[C@H](C(=O)N[C@@H](Cc1ccc(O)cc1)C(=O)N[C@@H](CC(C)C)C(=O)N[C@@H](CC(=O)O)C(=O)N[C@@H](CCCCN)C(=O)N[C@@H](CCC(N)=O)C(=O)N[C@@H](C)C(=O)N[C@@H](C)C(=O)NC(C)(C)C(=O)N[C@@H](CCC(=O)O)C(=O)N[C@@H](Cc1ccccc1)C(=O)N[C@H](C(=O)N[C@@H](CC(N)=O)C(=O)N[C@@H](Cc1c[nH]c2ccccc12)C(=O)N[C@@H](CC(C)C)C(=O)N[C@@H](CC(C)C)C(=O)N[C@@H](C)C(=O)NCC(=O)NCC(=O)N1CCC[C@H]1C(=O)N[C@@H](CO)C(=O)N[C@@H](CO)C(=O)NCC(=O)N[C@@H](C)C(=O)N1CCC[C@H]1C(=O)N1CCC[C@H]1C(=O)N1CCC[C@H]1C(=O)N[C@@H](CO)C(=O)N[C@@H](CS)C(N)=O)C(C)C)[C@@H](C)CC
B4: mt-324 (peptide)
peptide: Y[Aib]QGTFSSDYSIYLDKQAA[Aib]EFVNWLLAGGPSSGAPPPSC-NH2
modifications: N-terminus assumed
SMILES: CC[C@H](C)[C@H](NC(=O)[C@H](CO)NC(=O)[C@H](Cc1ccc(O)cc1)NC(=O)[C@H](CC(=O)O)NC(=O)[C@H](CO)NC(=O)[C@H](CO)NC(=O)[C@H](Cc1ccccc1)NC(=O)[C@@H](NC(=O)CNC(=O)[C@H](CCC(N)=O)NC(=O)C(C)(C)NC(=O)[C@@H](N)Cc1ccc(O)cc1)[C@@H](C)O)C(=O)N[C@@H](Cc1ccc(O)cc1)C(=O)N[C@@H](CC(C)C)C(=O)N[C@@H](CC(=O)O)C(=O)N[C@@H](CCCCN)C(=O)N[C@@H](CCC(N)=O)C(=O)N[C@@H](C)C(=O)N[C@@H](C)C(=O)NC(C)(C)C(=O)N[C@@H](CCC(=O)O)C(=O)N[C@@H](Cc1ccccc1)C(=O)N[C@H](C(=O)N[C@@H](CC(N)=O)C(=O)N[C@@H](Cc1c[nH]c2ccccc12)C(=O)N[C@@H](CC(C)C)C(=O)N[C@@H](CC(C)C)C(=O)N[C@@H](C)C(=O)NCC(=O)NCC(=O)N1CCC[C@H]1C(=O)N[C@@H](CO)C(=O)N[C@@H](CO)C(=O)NCC(=O)N[C@@H](C)C(=O)N1CCC[C@H]1C(=O)N1CCC[C@H]1C(=O)N1CCC[C@H]1C(=O)N[C@@H](CO)C(=O)N[C@@H](CS)C(N)=O)C(C)C

What follows are binders tested against glucagon receptor (UniProt P47871 26-477, limits assumed) (assay: cell-based or functional assay).
Target sequence in this assay (P47871 26-477 limits assumed): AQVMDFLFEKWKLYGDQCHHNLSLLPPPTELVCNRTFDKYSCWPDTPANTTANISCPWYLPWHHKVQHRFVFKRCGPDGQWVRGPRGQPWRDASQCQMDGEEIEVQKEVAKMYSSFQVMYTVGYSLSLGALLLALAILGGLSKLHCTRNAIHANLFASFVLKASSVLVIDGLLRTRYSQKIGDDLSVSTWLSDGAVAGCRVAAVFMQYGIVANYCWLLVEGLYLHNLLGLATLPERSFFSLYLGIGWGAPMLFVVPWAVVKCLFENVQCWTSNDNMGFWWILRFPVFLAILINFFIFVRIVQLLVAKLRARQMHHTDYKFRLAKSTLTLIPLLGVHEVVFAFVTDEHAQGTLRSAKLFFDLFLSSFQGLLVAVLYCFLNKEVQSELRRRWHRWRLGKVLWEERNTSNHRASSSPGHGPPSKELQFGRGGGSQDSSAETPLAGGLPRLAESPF
In the case of Y[Aib]QGTFTSDYSIYLDEQAAKEFVC(PEG 40 kDa)WLLAG-NH2 (lactam 16-20) [mt-172], the “EC50” value is reported as 9.16 nM and the relative activity is reported as 0.45%.
In the case of B1, the “EC50” value is reported as 47.7 nM and the relative activity is reported as 0.13%.

Each binder was assayed against GLP-1 receptor (UniProt P43220 24-463, limits assumed) (assay: cell-based or functional assay).
With Y[Aib]QGTFISDYSIYLDEQAAKEFVNWLLAGGPSSGAPPPSC(PEG 40 kDa)-NH2 (lactam 16-20) [mt-182] the “EC50” value was 10 nM.
For Y[Aib]QGTFTSDYSIYLDEQAAKEFVC(PEG 40 kDa)WLLAG-NH2 (lactam 16-20) [mt-172], the “EC50” value was 0.859 nM and the relative activity was 3.43%.
For B1, the “EC50” value was 35.3 nM and the relative activity was 0.07%.
With B2 the “EC50” value was 4.16 nM and the relative activity was 0.63%.
FTSDYSIYLDEQAAKEFVNWLLAGGPSSGAPPPS-NH2 (not fully specified) [mt-192] was tested, and the “EC50” value was 47 nM and the relative activity was 0.06%.

These binders were tested against T1, GIP receptor (assay: cell-based or functional assay).
In the case of Y[Aib]QGTFISDYSIYLDEQAAKEFVNWLLAGGPSSGAPPPSC(PEG 40 kDa)-NH2 (lactam 16-20) [mt-182], the “EC50” value is reported as 0.08 nM.
Y[Aib]QGTFTSDYSIYLDEQAAKEFVC(PEG 40 kDa)WLLAG-NH2 (lactam 16-20) [mt-172] was tested, and the “EC50” value was 7.54 nM and the relative activity was 0.25%.

Target: glucagon receptor (UniProt P47871 26-477, limits assumed)
Experiment: cell-based or functional assay
Remark: another data set of the same source
Target sequence in this assay (P47871 26-477 limits assumed): as the sequence (P47871 26-477 limits assumed) above
In the case of Y[Aib]EGTFTSDYSIYLDKQAA[Aib]EFVC(PEG 40 kDa)WLLAGGPSSGAPPPSK-NH2 (also: PEG linkage structure not given here) [mt-331], the “EC50” value is reported as 408 nM and the relative activity is reported as 0.02%.
For B3, the “EC50” value was 0.0915 nM and the relative activity was 86.5%.
B4 was tested, and the “EC50” value was 1.23 nM and the relative activity was 6.41%.
With Y[Aib]EGTFTSDYSIYLDKQAA[Aib]EFVNWLLAGGPSSGAPPPSKC-NH2 [mt-340] the “EC50” value was 10.5 nM.
With Y[Aib]EGTFTSDYSIYLDKQAA[Aib]EFVNWLLAGGPSSGAPPPSK(Myristoyl)C-NH2 [mt-339] the “EC50” value was 8.72 nM.

The binders below were run against T2, GIP receptor (assay: cell-based or functional assay).
For Y[Aib]EGTFTSDYSIYLDKQAA[Aib]EFVC(PEG 40 kDa)WLLAGGPSSGAPPPSK-NH2 (also: PEG linkage structure not given here) [mt-331], the “EC50” value was 0.0968 nM and the relative activity was 10.6%.
In the case of B3, the “EC50” value is reported as 0.0105 nM and the relative activity is reported as 111%.
For B4, the “EC50” value was 0.0387 nM and the relative activity was 30.2%.
With Y[Aib]EGTFTSDYSIYLDKQAA[Aib]EFVNWLLAGGPSSGAPPPSKC-NH2 [mt-340] the “EC50” value was 0.0028 nM.
With Y[Aib]EGTFTSDYSIYLDKQAA[Aib]EFVNWLLAGGPSSGAPPPSK(Myristoyl)C-NH2 [mt-339] the “EC50” value was 0.004 nM.

Target: GLP-1 receptor (UniProt P43220 24-463, limits assumed)
Experiment: cell-based or functional assay
Remark: another data set of the same source
In the case of Y[Aib]EGTFTSDYSIYLDKQAA[Aib]EFVC(PEG 40 kDa)WLLAGGPSSGAPPPSK-NH2 (also: PEG linkage structure not given here) [mt-331], the “EC50” value is reported as 0.448 nM and the relative activity is reported as 4.53%.
With B3 the “EC50” value was 2.68 nM and the relative activity was 0.83%.
In the case of B4, the “EC50” value is reported as 0.23 nM and the relative activity is reported as 9.68%.
For Y[Aib]EGTFTSDYSIYLDKQAA[Aib]EFVNWLLAGGPSSGAPPPSKC-NH2 [mt-340], the “EC50” value was 0.0061 nM.
Y[Aib]EGTFTSDYSIYLDKQAA[Aib]EFVNWLLAGGPSSGAPPPSK(Myristoyl)C-NH2 [mt-339] was tested, and the “EC50” value was 0.0092 nM.

Source: US20110166062A1 (INDIANA UNIVERSITY RESEARCH AND TECHNOLOGY, published 2011)
